This is an account of results in US20200123233A1 (published 2020).

Substitutions are numbered along the chain they refer to.

B1: LG191E4 (VHH)
VHH: EVQLVESGGGLVQAGGSLRLSCAASGPTFSADTMGWFRQAPGKEREFVATIPWSGGIAYYSDSVKGRFTMSRDNAKNTVDLQMNSLKPEDTALYYCAGSSRIYIYSDSLSERSYDYWGQGTQVTVSS
B2: RSVNC23 (VHH)
VHH: EVQLVESGGGLVQPGGSLRLSCAASGRTFSSIAMGWFRQAPGKEREFVAAISWSRGRTFYADSVKGRFIISRDDAANTAYLQMNSLKPEDTAVYYCAVDTASWNSGSFIYDWAYDHWGQGTQVTVSS
B3: RSVNC41 (VHH)
VHH: EVQLVESGGGLVQAGGSLSISCAASGGSLSNYVLGWFRQAPGKEREFVAAINWRGDITIGPPNVEGRFTISRDNAKNTGYLQMNSLAPDDTAVYYCGAGTPLNPGAYIYDWSYDYWGRGTQVTVSS
B4: LG191D3 (VHH)
VHH: EVQLVESGGGLVQAGGSLRLSCEASGRTYSRYGMGWFRQAPGKEREFVAAVSRLSGPRTVYADSVKGRFTISRDNAENTVYLQMNSLKPEDTAVYTCAAELTNRNSGAYYYAWAYDYWGQGTQVTVSS
B5: RSVPMP15B3 (VHH)
VHH: EVQLVESGGGLVQPGGSLRLSCAASGLTLDYYALGWFRQAPGKEREGVSCISSSDHSTTYTDSVKGRFTISWDNAKNTLYLQMNSLKPGDTAVYYCAADPALGCYSGSYYPRYDYWGQGTQVTVSS
B6: 1E4 (VHH)
VHH: B4 VHH with Y29F, R31S, S106P, A112T
B7: IV144 (VHH)
VHH: QVQLQQSGGGLVQAGGSLRLSCAASGNIISFNPMGWHRQAPGKQRELVASITSGGSISYVDSVKGRFTISRDSAKNTIYLQMNSLKPEDTAVYFCAGEGPRRRGSTWYTDTYWGQGTQVTVSS
notes: yeast-produced
B8: IV133 (VHH)
VHH: QVQLQQSGGGLVQPGGSLRLSCAASSSGFSFNPMGWYRQAPGKQRELVATMTSGGTTNYADSVKGRFTISRDNAKTTVYLQMNSLKPEDTAVYYCNARGPRRATTGWITDDYWGQGTQVTVSS
notes: yeast-produced
B9: IV157 (VHH)
VHH: B8 VHH with S26R, G28D, F29I, M51I, T52S, S53N, R71Q, A97G, R102Y, I108Y
notes: yeast-produced
B10: IV156 (VHH)
VHH: B8 VHH with S26R, M51I, R71T, Y79F, A97G, A103G, T105A, I108F
notes: yeast-produced
B11: IV25 (VHH)
VHH: QVQLQQSGGGLVQSGGSLSLSCAASGITLNNRVVGWFRQAPGKEREFVGRIMWSVGDTFYARSVKGRFTISRDNAKNTMYLQMNALKPEDTAVYYCAAARDPDLYTGQYEYWGQGTQVTVSS
notes: yeast-produced
B12: IV131 (VHH)
VHH: QVQLQQSGGGLVQAGGSLRLSCAASGSGFSFNPMGWYRQAPGKQRELVASITSGGTTNYVDSVKGRFTISRGNAKNTVYLQMNSLKPEDTAVYYCAAEGPRRRGSTWYTDNYWGQGTQVTVSS
notes: yeast-produced
B13: PMP19C4 (VHH)
VHH: EVQLVESGGGLVQAGGSLRLSCAASGRSFSNYVLGWFRQAPGKEREFVAAISFRGDSAIGAPSVEGRFTISRDNAKNTGYLQMNSLVPDDTAVYYCGAGTPLNPGAYIYDWSYDYWGRGTQVTVSS
B14: PMP1G8 (VHH)
VHH: EVQLVESGGGSVQAGGSLRLSCAASGGSFNRFGMGWFRRAPGKERDFVAAINLSGDTTYYVDSVQGRFTISRDNANNIMYLQMNLLKPEDTADYYCAADPDPITAWKQSGAGMDYWGKGTQVTVSS
B15: PMP1E5 (VHH)
VHH: EVQLVESGGGLVQAGGSLRLSCEASGRTFSPIAMGWFRQAPGKEREFVAVVTRWSGARTVYADSVKGRFTISRDNAENTVYLQMNSLKPEDTAVYTCAADSTNRNSGAIYYTWAYDYWGQGTQVTVSS
B16: PMP1G3 (VHH)
VHH: B4 VHH
B17: PMP20B2 (VHH)
VHH: B15 VHH with P31S, I32Y, A33D, V50A, T59G, Y81H, I109V
B18: PMP1A6 (VHH)
VHH: EVQLVESGGGLVQAGGSLRLSCAASGRTFSSYAMGWFRQAPGKEREFVAAIWWSGGSTYYADSVKGRFTMSRDNAKNTVYLEMNNLKPEDTAVYYCAADTDSSNSGSYLYTWAYDYWGQGTQVTVSS
B19: PMP20C1 (VHH)
VHH: EVQLVESGGGLVQAGGSLRLSCAASGRTFSSFAMGWFRQAPGKEREFVAAISWSGGSTYYADSVKGRFTISGDNAKNTMYLQMNSLKPEDTAVYYCAADSEILNSGAYYYPWAYVYWGQGTQVTVSS

For one assay, the target named is T1, FTM-NN protein (membrane anchorless form of the Long fusion protein, 70 kDa) (human respiratory syncytial virus, …, UniProt P12568 26-524).
T1 construct: domain: membrane anchorless form of the fusion protein
The experiment in a line: SPR (Biacore), FTM-NN immobilised. Background: SPR reads the build-up and loss of mass on a sensor chip optically.
One may read the Kd as the constant that tells how readily two partners part at equilibrium. For orientation: koff means the first-order rate constant of dissociation. Usually kon stands for a measure of how fast the partners come together. Low values mean slow association, high ones fast association. On to B1, for which the Kd came out at 0.27 nM, the off-rate constant (koff) stood at 0.00015 s⁻¹ and the kon was 570000 M⁻¹ s⁻¹.

On to B2, for which the affinity, expressed as Kd, was 0.92 nM; the dissociation rate constant (koff) is 0.00074 s⁻¹; the kon was 800000 M⁻¹ s⁻¹.

B3 displayed a Kd of 8.1 nM, a koff of 0.0067 s⁻¹ and a kon of 820000 M⁻¹ s⁻¹.

In the case of B4, the Kd came out at 1.9 nM, the koff came to 0.0028 s⁻¹ and the kon stood at 1.5e+06 M⁻¹ s⁻¹.

B5 had an equilibrium dissociation constant (Kd) of 0.67 nM, a koff of 0.00027 s⁻¹ and a kon of 410000 M⁻¹ s⁻¹.

A further assay addresses hRSV (inactivated hRSV strain Long, Hytest #8RSV79), F protein on virus particles (human respiratory syncytial virus, …, UniProt P12568 26-574). Description: binding ELISA on coated hRSV (Hytest), anti-VHH detection. In general terms: ELISA stands for enzyme-linked immunosorbent assay.
What is called EC50 is the concentration giving half of the maximal effect. The low end stands for a more potent agent, the high end for a less potent agent. Take B1: a half-maximal effect (EC50) was put at 0.083 nM.

Consider B2, for which the EC50 is 0.1 nM.

For the molecule B3, the midpoint of the response, the EC50, lay at 0.41 nM.

With B4, the EC50 amounted to 0.15 nM. Compared with the last molecule, the EC50 is about 2.7-fold lower.

B5 came in with an EC50 of 0.058 nM.

The target of another assay is F protein of RSV A-2 (human respiratory syncytial virus, …, UniProt P03420 26-574). The experiment in a line: cell-based or functional assay.
As to B2, the “RSV neutralization IC50 (nM) (n = 2), A-2” value stood at 109 nM.

In the case of B4, the “RSV neutralization IC50 (nM) (n = 2), A-2” value turned out to be 227 nM.

Consider B6, for which the “RSV neutralization IC50 (nM) (n = 2), A-2” value worked out at 298 nM.

A further assay has as its target F protein of RSV B-1 (human respiratory syncytial virus, …, UniProt P13843 26-574). Description: cell-based or functional assay.
On to B1, for which the “RSV neutralization IC50 (nM) (n = 2), B1” value was 4330 nM.

For B5, the “RSV neutralization IC50 (nM) (n = 2), B1” value stood at 1270 nM.

In the next assay the target is F protein of RSV Long (RSV LONG M-2) (human respiratory syncytial virus, …, UniProt P12568 26-574). Description: cell-based or functional assay.
As to B2, the “RSV neutralization IC50 (nM) (n = 2), Long” value is 144 nM.

For the molecule B4, the “RSV neutralization IC50 (nM) (n = 2), Long” value turned out to be 253 nM.

Turning to B6, the “RSV neutralization IC50 (nM) (n = 2), Long” value was 380 nM.

The target in a further assay is authentic influenza antigen of A/PR/8/34 (ATCC VR-1469), H1N1 (influenza A virus A/PR/8/34 (H1N1), UniProt P03452 18-565). The experiment in a line: ELISA on coated authentic influenza antigen.
In the case of B7, the binding result is recorded as “no binding (tested: 10 µg/ml)”.

With B8, the binding result is “no binding (tested: 10 µg/ml)”.

Consider B9, for which the binding result was “no binding (tested: 10 µg/ml)”.

On to B10, for which the binding result is “no binding (tested: 10 µg/ml)”.

In the case of B11, the binding result was “no binding (tested: 10 µg/ml)”.

As for B12, the binding result was “no binding (tested: 10 µg/ml)”.

The target of another assay is T1, FTM-NN protein (membrane anchorless …). Description: competition ELISA on coated FTM-NN; competitor biotinylated Synagis Fab.
B2 gave a concentration for a half-maximal effect (EC50) of 2.3 nM.

In turn, B3 yielded an EC50 of 32 nM.

B4: the response was half-maximal at 5.9 nM (EC50).

The target of a further assay is FTM-NN protein (membrane anchorless form of the Long fusion protein, 70 kDa) (human respiratory syncytial virus, …, UniProt P12568 26-524). Description: binding ELISA, periplasmic extract on immobilised antigen.
Consider B13, for which the “Binding RSV-A, Fold blanc” value came out at 2.5 fold over blank.

For the molecule B14, the “Binding RSV-A, Fold blanc” value is 3.7 fold over blank.

Turning to B15, the “Binding RSV-A, Fold blanc” value was found to be 3.4 fold over blank.

On to B16, for which the “Binding RSV-A, Fold blanc” value stood at 3.4 fold over blank.

B17: the “Binding RSV-A, Fold blanc” value was found to be 3 fold over blank.

For the molecule B18, the “Binding RSV-A, Fold blanc” value came to 4.2 fold over blank.

Take B19: the “Binding RSV-A, Fold blanc” value was determined as 2.7 fold over blank.
